B1: HDAC6 (parent)
chain: QYMNEGELRVLADTYDSVYLHPNS
B2: RSPH3 (parent)
chain: KAASLARNLAKRRRTYLGGAAGRS

Variants of: B1
Assay: protein stability index of a GFP-peptide fusion (GPS, HEK-293T) (PSI 1-6); higher = more stable
Settings: c terminus: a fixed tail appended
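Note: lentivirally expressed fusions sorted by FACS into six bins by GFP to DsRed ratio, PSI derived from sequencing read proportions per bin multiplied by bin number.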

Protein stability index, by site and new letter:
L8: F 1.52; Y 2.96; D 2.7; K 3; W 1.33; I 2.86; T 2.19; G 3.36; R 2.94; M 1.85; S 2.55; A 2.53; V 3.68; P 3.84; H 2.45; N 2.62; C 2.33; Q 2.66; E 3.51
V18: R 2.63; P 1.92; M 2.25; A 2.56; W 2.1; N 2.98; H 2.68; T 1.77; C 2.17; S 2.88; L 1.95; G 2.6; I 1.51; Q 3.02; Y 2.21; K 2.63; E 3.18; F 2.23; D 2.87
D16: T 1.8; S 3.08; V 2.42; W 4.07; P 2.56; E 2.42; C 4.03; F 3.19
Y19: Q 3; T 3.2; M 1.9; D 3.32; R 1.59; N 2.62; V 4.09; W 4.22; C 2.13; P 2.32; K 1.71; E 3.03; G 3.72; F 2.11; L 2.1; S 2.14; I 1.79; A 2.49; H 2.45
V10: S 2.81; I 1.84; C 2.51; A 1.79; K 2.01; R 1.92; P 3.53; M 2.08; E 2.46; Q 3.27; G 3.15; T 2.18; H 2.31; D 3.61; N 2.15; L 1.66; F 2.69; W 2.22; Y 2.95
D13: T 2.08; G 2.86; Q 1.57; P 1.94; V 1.97; L 1.45; I 2.2; E 1.6; H 1.77; R 1.27; K 1.16; C 1.2; W 1.37; F 3.63; S 1.9; N 2.23
L20: F 2; I 1.39; Q 2.58; N 2.42; S 3.32; T 2.88; E 2.26; R 2.06; Y 2.38; K 1.87; A 2.54; D 3.27; W 1.67; P 2.68; M 2.14; G 2.14; V 2.22; H 3
R9: A 1.76; Y 1.87; T 2.14; V 4.11; Q 2.65; P 3.26; G 2.18; L 1.6; M 1.46; D 2; F 3.31; I 2.13; N 2.67; S 2.05; H 3.19; C 1.48; K 1.69; W 1.23; E 2.7
Y15: M 2.79; S 3.18; A 2.75; K 3.46; T 2.82; V 2.38; W 2.25; P 1.9; I 1.81; L 2.69; H 3.13; G 2.6; D 3.86; Q 2.95; C 2.46; N 2.65; F 1.83; E 3.18; R 3.05
E7: T 2.62; Y 1.44; W 1.72; V 1.5
N23: E 2.69; H 1.94; M 1.23; V 2.03; A 1.43; Y 1.73; R 2.17; C 1.99; Q 1.92; L 1.6; S 2.34; I 2.31; F 1.96; W 1.46; K 2.36; D 1.8; T 2.03; P 1.57
T14: L 1.28; Q 3.12; N 2.36; K 1.76; D 2.84; E 2.2; Y 2.92; P 2.53; R 2.51; A 2.1; S 2.04; C 2.54; W 1.43; V 1.5; F 1.73; H 2.73
S24: V 1.74; E 1.73; I 3.21; P 1.91; H 1.61; A 1.44; T 1.52; M 1.57; C 1.64; R 2.4; G 2.24; Q 3.76; F 1.58; L 1.52; K 1.46; N 2.04; D 2.58; W 1.24; Y 1.41
H21: D 1.84; W 1.84; P 1.85; I 2.25; F 3.64; R 1.76; Y 2.18; E 2.33; L 1.71; A 1.43; S 1.55; T 1.38; G 1.64; C 3.56; M 1.47; Q 2.11; K 1.92; N 2.21
A12: D 1.57; E 2.36; P 3.17; F 2.89; G 1.68; L 2.58; I 2.73; M 3.21; Q 2.04; R 2.31; N 1.92; W 1.02; Y 2.1; S 2.58; T 2.54; H 2.31; K 1.98; V 1.09
L11: G 2.46; P 3.49; Y 2.14; A 1.83; V 2.25; D 3.01; W 2.64; M 2.98; C 1.95; E 2.36; N 2.32; F 2.01; S 1.76; H 3.13; Q 2.32; R 2.61; T 2; I 1.78; K 3.03
P22: K 1.96; F 1.82; I 2.08; Q 1.58; E 2.13; Y 1.41; A 2.15; R 1.96; N 1.38; M 2.15; G 2.27; V 1.83; S 1.68; T 1.66; C 1.85; H 2.4; L 1.3; W 2.56; D 2.37
S17: W 2.57; N 2.08; I 2.32; C 2.46; G 2.05; V 2.09; L 2.02; Y 1.47; T 2.37; R 2.18; H 2.07; K 1.78; P 3.32; M 1.95; F 2.53; E 2.99; D 2.56; Q 2.5

Variants of: B2
Assay: as above
Settings: c terminus: a fixed tail appended

Protein stability index of substitutions, site by site:
K1: T 2.98; G 3.77; A 1.98; W 2.29; F 1.47; C 1.87; H 2.49
S4: A 1.89; C 1.98
A2: N 3.47; S 3.04; T 3.68; R 3.91; I 1.71; E 3.41; F 2.08; G 3; Q 3.13
A3: G 3.72; K 2.68; H 3.48; R 3.01; D 3.02; P 3.96; Y 1.74; F 1.01; Q 3.71; N 2.69; E 3.16

From the supplement of paper PMC10567573
